In this test the target is MBP-Hsmar1 transposase (human). As to the kind of experiment: SEC; Superdex 200 10/300 GL, GF buffer (25 mM HEPES pH 7.5, 200 mM NaCl, 2 mM DTT, 5 mM EDTA, 0.1% Triton X-100 reduced); ^MBPHsmar1 after increasing Factor Xa proteolysis (1 ug protease per 50 ug fusion protein). On the technique in general: SEC sorts molecules by how far they enter the pores of the column.

Substance MBP-Hsmar1 transposase (enzyme) returned a stoichiometry N of 2.

For orientation: stoichiometry N means the number of molecules, sites or subunits per partner or assembly.
